Assay results published in publication PMC12413468 (Communications Biology, 2025).
Where no end group is shown, it is not given here. [ ]: non-standard residue; d: D form. pS = N[C@@H](COP(=O)(O)O)C(=O)O

Legend:
[1] = target: His6-tagged SPAK CCT domain (mouse SPAK 459–556) (mouse, UniProt Q9Z1W9 459-556); assay: fluorescence polarisation
[2] = target: T1, His6-tagged OSR1 CCT domain (human OSR1 433–527) (human, UniProt O95747 433-527); assay: fluorescence polarisation
[3] = target: T1, His6-tagged OSR1 CCT domain (human OSR1 …); assay: peptide or protein array

T1 sequence (O95747 433-527): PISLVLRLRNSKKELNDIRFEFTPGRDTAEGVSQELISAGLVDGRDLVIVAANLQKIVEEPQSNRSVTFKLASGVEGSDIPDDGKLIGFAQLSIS

Question: With QLVGRFQVTSSKE [Wild-type human WNK4 peptide 1012–1024 (QLVGRFQVTSSKE)] as the binder, how does the Ki [1] read?
Answer: 7.2 µM

Question: And the Ki [2]?
Answer: 12.9 µM

Question: Which results are given for QLVARFQVTSSKE [WNK4 peptide 1012–1024 with the −2 glycine changed to alanine (QLVARFQVTSSKE)]?
Answer: binding result [1]: binds; binding result [2]: binds

Question: Which results are given for QLVSRFQVTSSKE [WNK4 peptide 1012–1024 with the −2 glycine changed to serine]?
Answer: binding result [1]: binds; binding result [2]: binds

Question: Does Ac-QLVGRFQVTSSKE (also: covalently linked to the membrane) [Wild-type WNK4 1012–1024 base peptide on the peptide array] bind [3]?
Answer: binds

Question: Which results are given for H-SAGRRFIVSPVPE-OH [Wild-type human WNK1 peptide 1253–1265 (NH3+-SAGRRFIVSPVPE-COO-)]?
Answer: Ki [1]: 2.5 µM; Ki [2]: 5.1 µM

Question: Which results are given for SAGRRFIV[pS]PVPE [WNK1 peptide 1253–1265 with phosphoserine at the +3 position]?
Answer: fold decrease in affinity against the unphosphorylated peptide [1]: ~2.5 fold; fold decrease in affinity against the unphosphorylated peptide [2]: ~2.5 fold

Question: Which results are given for SAGHHFIVSPVPE [WNK1 peptide 1253–1265 with the arginines replaced by histidine-histidine]?
Answer: fold decrease in affinity against wild type [1]: ~7 fold; fold decrease in affinity against wild type [2]: ~7 fold

Question: What does the source list for SAGHAFIVSPVPE [WNK1 peptide 1253–1265 with the arginines replaced by histidine-alanine]?
Answer: fold decrease in affinity against wild type [1]: 11 fold; fold decrease in affinity against wild type [2]: 11 fold

Question: Which results are given for SAGKKFIVSPVPE [WNK1 peptide 1253–1265 with the arginines replaced by lysine-lysine]?
Answer: Ki [1]: 4.2 µM; Ki [2]: 16.3 µM
